Results on 1 substance are retold here after article doi:10.1101/2025.08.20.671286.

The target of the experiment is apoptosis-inducing factor, mitochondrial (AIFM1) (human) (UniProt O95831). Briefly: cross-linking.

What is called stoichiometry N is the number of molecules, sites or subunits per partner or assembly. “apoptosis-inducing factor, mitochondrial (AIFM1) (from UniProt O95831 103-613) (natural protein)” had a stoichiometry N of 2.
